Molecular target: T1, mPD1 (on CHO-mPD1 cells) (mouse (printed as mPD1), UniProt Q02242 25-288)
T1 construct: whole, on cells; Target of the antibody terminus in the FACS assay
T1 sequence (looked up): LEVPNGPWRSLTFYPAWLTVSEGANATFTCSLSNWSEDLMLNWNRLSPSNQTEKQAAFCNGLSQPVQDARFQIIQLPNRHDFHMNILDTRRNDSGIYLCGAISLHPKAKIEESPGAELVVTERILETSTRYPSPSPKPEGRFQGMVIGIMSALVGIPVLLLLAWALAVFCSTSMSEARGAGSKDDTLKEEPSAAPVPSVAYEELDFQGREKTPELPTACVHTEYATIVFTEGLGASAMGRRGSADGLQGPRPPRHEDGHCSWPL
Test: flow cytometry (FACS) on CHO-mPD1 cells, PE secondary antibody, 3-fold dilutions from 400 nM
Experimental: CHO-mPD1 or CHO-hIL-10R cells were centrifuged at 250 g for 5 min, a supernatant was discarded, the cell density was adjusted to 2E+06 by a PBS buffer with 3% BSA, and it was evenly divided into a 96-well V-shaped plate according to 100 μl/tube; the fusion protein molecules diluted above were added to cells, and incubated at 100 μL/well and 2-8° C. for 0.5 h; the 96-well plate was taken out, and centrifuged at 250 g for 5 min, and a supernatant was removed carefully; the PBS buffer with 3% BSA was used to prepare a PE fluorescent secondary antibody (1:500 dilution), it was added to the corresponding 96-well plate according to the volume of 100 μL/well, and the cells were resuspended, and incubated at 2-8° C. for 30 min; the 96-well plate was taken out, and centrifuged at 250 g for 5 min, a supernatant was removed carefully, the PBS buffer with 3% BSA was added at 200 μL/well, and it was centrifuged again at 250 g for 5 min, and a supernatant was removed carefully; and it was resuspended with 1×PBS according to the volume of 100 μL/well, and FACS detection was performed after the resuspension.

B1: R0989 (other)
heavy: QVQLKESGPGLVQPSQTLSLTCTVSGFSLTSYNVHWVRQPPGKGLEWMGGMRYNEDTSYNSALKSRLSISRDTSKNQVFLKMNSLQTDDTGTYYCTRDAVYGGYGGWFAYWGQGTLVTVSSASTKGPSVFPLAPSSKSTSGGTAALGCLVKDYFPEPVTVSWNSGALTSGVHTFPAVLQSSGLYSLSSVVTVPSSSLGTQTYICNVNHKPSNTKVDKRVEPKSCDKTHTCPPCPAPEAAGGPSVFLFPPKPKDTLMISRTPEVTCVVVDVSHEDPEVKFNWYVDGVEVHNAKTKPREEQYNSTYRVVSVLTVLHQDWLNGKEYKCKVSNKALPAPIEKTISKAKGSGSGSGSGQGTQSENSCTHFPGNLPNMLRDLRDAFSRVKTFFQMKDQLDNLLLKESLLEDFKGYLGCQALSEMIQFYLEEVMPQAENQDPDIKAHVNSLGENLKTLRLRLRRCHRFLPCENGGGSGGKSKAVEQVKNAFNKLQEKGIYKAMSEFDIFINYIEAYMTMKIRNGSGSGSGSGQPREPQVYTLPPSREEMTKNQVSLTCLVKGFYPSDIAVEWESNGQPENNYKTTPPVLDSDGSFFLYSKLTVDKSRWQQGNVFSCSVMHEALHNHYTQKSLSLSPGK
light: DTVLTQSPALAVSLGQRVTISCKASETVSSSMYSYIHWYQQKPGQQPKLLIYRASNLESGVPARFSGSGSGTDFTLTIDPVEADDVATYFCQQSWNPWTFGGGTKLELKRTVAAPSVFIFPPSDEQLKSGTASVVCLLNNFYPREAKVQWKVDNALQSGNSQESVTEQDSKDSTYSLSSTLTLSKADYEKHKVYACEVTHQGLSSPVTKSFNRGEC
notes: Anti-PD-1 antibody with the modified IL-10 monomer inserted between CH2 and CH3 through linker2; also called IL-10 monomer fusion protein, IL-10 monomer between CH2 and CH3 of the heavy chain (Position 3)
B1: binds.

From patent publication US20250032583A1 (GUANGDONG FAPON BIOPHARMA, published 2025)
